The target in this experiment is T1, Avidin (Gallus gallus, UniProt P02701).
T1 construct: purchased Sigma-Aldrich A9275
In words: Reflected light intensity from an antireflective SiO2-coated prism, He-Ne laser and photodiode (Example 2): binding to adsorbed Avidin. The settings on record: 632.8 nm laser; flow 10 microliters/minute; phosphate buffer pH 7.4 + 150 millimolar NaCl; BSA 0.4 micromolar, BSA-biotin 0.5 micromolar. The text has this: A layer of silicon oxide (SiO2) was deposed by sputtering on one side of a glass prism, as described in Example 1. The prism is placed in a flow cell so that the coated surface is in contact with the aqueous solution. A light beam from a 5 milliwatts He—Ne laser is sent to the interface between the aqueous solution and the prism and the reflected light is detected by a photodiode that converts the light intensity in an electrical signal. Through the cell is promoted a flow of 10 microliters/minute of an aqueous solution containing sodium phosphate buffer pH 7.4+150 millimolar NaCl (hereafter called “phosphate buffer”) in the following order:
b) protein Avidin (marketed by Sigma-Aldrich, prod. No. A9275) at a concentration of 3 micromolar;
d) protein Bovine Serum Albumin, BSA (marketed by Sigma-Aldrich, prod. No. A6003) at a concentration of 0.4 micromolar;
f) protein BSA conjugated to biotin (marketed by Sigma-Aldrich, prod. No. A8549) at a concentration of 0.5 micromolar;
In FIG. 5 the measured reflected intensity is reported as a function of time. The value of the reflected light intensity measured before the step a) corresponds to a reflectivity of 3.2·10^−6. […] Unlike in Example 1, in this case the adhesion molecules on the surface causes an increase in the intensity of reflected light. […]

T1 sequence (P02701 25-152): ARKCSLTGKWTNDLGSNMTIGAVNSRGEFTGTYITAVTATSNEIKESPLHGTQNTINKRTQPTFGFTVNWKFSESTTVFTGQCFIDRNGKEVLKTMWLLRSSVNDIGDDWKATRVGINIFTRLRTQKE

Consider Bovine Serum Albumin [BSA protein], for which the “variation of reflected intensity on flowing the solution over adsorbed Avidin” value is recorded as “no further variation is observed”.

Source of the values: patent US8932880B2, “Method for the direct measure of molecular interactions by detection of light reflected from multilayered functionalized dielectrics” (ProXentia s.r.l., priority 2009, dated 2015).
